In JP2020117470A (dated 2020):

T1: Streptococcus pyogenesのStreptolysin O(SLO) (Streptococcus pyogenes, UniProt P0C0I3 34-571)
T1 sequence: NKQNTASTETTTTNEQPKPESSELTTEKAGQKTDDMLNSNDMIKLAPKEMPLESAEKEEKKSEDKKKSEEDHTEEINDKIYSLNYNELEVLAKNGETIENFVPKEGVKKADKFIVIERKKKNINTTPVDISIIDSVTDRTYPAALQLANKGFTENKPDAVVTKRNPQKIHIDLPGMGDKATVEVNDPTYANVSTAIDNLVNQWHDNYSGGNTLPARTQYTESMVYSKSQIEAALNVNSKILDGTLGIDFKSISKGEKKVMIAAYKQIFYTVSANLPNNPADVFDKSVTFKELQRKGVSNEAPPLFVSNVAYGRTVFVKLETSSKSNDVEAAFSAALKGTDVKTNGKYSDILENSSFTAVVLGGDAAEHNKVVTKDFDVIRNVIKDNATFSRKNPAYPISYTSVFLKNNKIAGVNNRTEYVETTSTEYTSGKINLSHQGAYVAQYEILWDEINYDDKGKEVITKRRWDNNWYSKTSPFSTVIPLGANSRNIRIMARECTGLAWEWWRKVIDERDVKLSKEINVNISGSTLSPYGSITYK

B1: 抗体HS3 (antibody, V domains shown)
VH: EVQLQESGPDLVKPSQSLSLICTVTGYSITSGYNWHWIRQFPGNKLEWMAYIDYTGSTHYNPSLKSRISITRDTSKNHFFLQLNSVTTEDTATYYCARDYGNYEWSFDVWGAGTTVTVSS
VL: DIQMNQSPSSLSASLGDTITITCHASQNINVWLSWYQQKPGNIPKLLIYKASNLHTGVPSRFSGSGSGTGFTLTISSLQPEDIATYYCQQGQSYPLTFGAGTKL
B2: 抗体HS2 (antibody, V domains shown)
V domain 1: VQLQESGPELVKPGASVKISCKASGYAFSSSWMNWVRQRPGQGLEWIGRIYPGDGDTNYNGKFKGKATLTADKSSNAAYMHLSSLTSVDSAVYFCARRNYGSGFLYYFDYWGQGTTLTV
V domain 2: QIVLSQFPAILSASPGEKVTMTCRASSSVSYMHWYQQKPGSSPKLWIYATSDLASGVPARFSGSGSGTSYSLTISRVEAEDAATYYCQQWSSNPPTFGGGTKL

Target: T1, Streptococcus pyogenesのStreptolysin …
Assay: ELISA, plate coated with 1 μg/mL SLO, anti-mouse IgG-HRP detection

Binder | binding result
B1 | no binding
B2 | no binding
